Test results from US20140274782A1, “AFFINITY REAGENTS AND METHODS FOR DETECTION, PURIFICATION, AND PROTEOMIC ANALYSIS OF METHYLATED PROTEINS” (The Board of Trustees of the Leland Stanford Junior …, priority 2013, published 2014).

B1: CMAS: protein with methylated lysine identified in 3xMBT pull-down (protein, UniProt Q8NFW8 1-434, looked up)
N-acylneuraminate …: MDSVEKGAATSVSNPRGRPSRGRPPKLQRNSRGGQGRGVEKPPHLAALILARGGSKGIPLKNIKHLAGVPLIGWVLRAALDSGAFQSVWVSTDHDEIENVAKQFGAQVHRRSSEVSKDSSTSLDAIIEFLNYHNEVDIVGNIQATSPCLHPTDLQKVAEMIREEGYDSVFSVVRRHQFRWSEIQKGVREVTEPLNLNPAKRPRRQDWDGELYENGSFYFAKRHLIEMGYLQGGKMAYYEMRAEHSVDIDVDIDWPIAEQRVLRYGYFGKEKLKEIKLLVCNIDGCLTNGHIYVSGDQKEIISYDVKDAIGISLLKKSGIEVRLISERACSKQTLSSLKLDCKMEVSVSDKLAVVDEWRKEMGLCWKEVAYLGNEVSDEECLKRVGLSGAPADACSTAQKAVGYICKCNGGRGAIREFAEHICLLMEKVNNSCQK
B2: GTF2I: protein with methylated lysine identified in 3xMBT pull-down (protein, UniProt P78347 2-998, looked up)
General transcription factor …: AQVAMSTLPVEDEESSESRMVVTFLMSALESMCKELAKSKAEVACIAVYETDVFVVGTERGRAFVNTRKDFQKDFVKYCVEEEEKAAEMHKMKSTTQANRMSVDAVEIETLRKTVEDYFCFCYGKALGKSTVVPVPYEKMLRDQSAVVVQGLPEGVAFKHPENYDLATLKWILENKAGISFIIKRPFLEPKKHVGGRVMVTDADRSILSPGGSCGPIKVKTEPTEDSGISLEMAAVTVKEESEDPDYYQYNIQAGPSETDDVDEKQPLSKPLQGSHHSSEGNEGTEMEVPAEDSTQHVPSETSEDPEVEVTIEDDDYSPPSKRPKANELPQPPVPEPANAGKRKVREFNFEKWNARITDLRKQVEELFERKYAQAIKAKGPVTIPYPLFQSHVEDLYVEGLPEGIPFRRPSTYGIPRLERILLAKERIRFVIKKHELLNSTREDLQLDKPASGVKEEWYARITKLRKMVDQLFCKKFAEALGSTEAKAVPYQKFEAHPNDLYVEGLPENIPFRSPSWYGIPRLEKIIQVGNRIKFVIKRPELLTHSTTEVTQPRTNTPVKEDWNVRITKLRKQVEEIFNLKFAQALGLTEAVKVPYPVFESNPEFLYVEGLPEGIPFRSPTWFGIPRLERIVRGSNKIKFVVKKPELVISYLPPGMASKINTKALQSPKRPRSPGSNSKVPEIEVTVEGPNNNNPQTSAVRTPTQTNGSNVPFKPRGREFSFEAWNAKITDLKQKVENLFNEKCGEALGLKQAVKVPFALFESFPEDFYVEGLPEGVPFRRPSTFGIPRLEKILRNKAKIKFIIKKPEMFETAIKESTSSKSPPRKINSSPNVNTTASGVEDLNIIQVTIPDDDNERLSKVEKARQLREQVNDLFSRKFGEAIGMGFPVKVPYRKITINPGCVVVDGMPPGVSFKAPSYLEISSMRRILDSAEFIKFTVIRPFPGLVINNQLVDQSESEGPVIQESAEPSQLEVPATEEIKETDGSSQIKQEPDPTW
modifications: methylated lysine
notes: protein with methylated lysine identified in 3xMBT pull-down
B3: DDX1: protein with methylated lysine identified in 3xMBT pull-down (protein, UniProt Q92499 1-740, looked up)
ATP-dependent RNA helicase …: MAAFSEMGVMPEIAQAVEEMDWLLPTDIQAESIPLILGGGDVLMAAETGSGKTGAFSIPVIQIVYETLKDQQEGKKGKTTIKTGASVLNKWQMNPYDRGSAFAIGSDGLCCQSREVKEWHGCRATKGLMKGKHYYEVSCHDQGLCRVGWSTMQASLDLGTDKFGFGFGGTGKKSHNKQFDNYGEEFTMHDTIGCYLDIDKGHVKFSKNGKDLGLAFEIPPHMKNQALFPACVLKNAELKFNFGEEEFKFPPKDGFVALSKAPDGYIVKSQHSGNAQVTQTKFLPNAPKALIVEPSRELAEQTLNNIKQFKKYIDNPKLRELLIIGGVAARDQLSVLENGVDIVVGTPGRLDDLVSTGKLNLSQVRFLVLDEADGLLSQGYSDFINRMHNQIPQVTSDGKRLQVIVCSATLHSFDVKKLSEKIMHFPTWVDLKGEDSVPDTVHHVVVPVNPKTDRLWERLGKSHIRTDDVHAKDNTRPGANSPEMWSEAIKILKGEYAVRAIKEHKMDQAIIFCRTKIDCDNLEQYFIQQGGGPDKKGHQFSCVCLHGDRKPHERKQNLERFKKGDVRFLICTDVAARGIDIHGVPYVINVTLPDEKQNYVHRIGRVGRAERMGLAISLVATEKEKVWYHVCSSRGKGCYNTRLKEDGGCTIWYNEMQLLSEIEEHLNCTISQVEPDIKVPVDEFDGKVTYGQKRAAGGGSYKGHVDILAPTVQELAALEKEAQTSFLHLGYLPNQLFRTF
B4: NHP2L1: protein with methylated lysine identified in 3xMBT pull-down (protein, UniProt P55769 1-128, looked up)
NHP2-like protein 1: MTEADVNPKAYPLADAHLTKKLLDLVQQSCNYKQLRKGANEATKTLNRGISEFIVMAADAEPLEIILHLPLLCEDKNVPYVFVRSKQALGRACGVSRPVIACSVTIKEGSQLKQQIQSIQQSIERLLV
B5: eEF1A1: protein with methylated lysine identified in 3xMBT pull-down (protein, UniProt P68104 2-462, looked up)
Elongation factor 1-alpha 1: GKEKTHINIVVIGHVDSGKSTTTGHLIYKCGGIDKRTIEKFEKEAAEMGKGSFKYAWVLDKLKAERERGITIDISLWKFETSKYYVTIIDAPGHRDFIKNMITGTSQADCAVLIVAAGVGEFEAGISKNGQTREHALLAYTLGVKQLIVGVNKMDSTEPPYSQKRYEEIVKEVSTYIKKIGYNPDTVAFVPISGWNGDNMLEPSANMPWFKGWKVTRKDGNASGTTLLEALDCILPPTRPTDKPLRLPLQDVYKIGGIGTVPVGRVETGVLKPGMVVTFAPVNVTTEVKSVEMHHEALSEALPGDNVGFNVKNVSVKDVRRGNVAGDSKNDPPMEAAGFTAQVIILNHPGQISAGYAPVLDCHTAHIACKFAELKEKIDRRSGKKLEDGPKFLKSGDAAIVDMVPGKPMCVESFSDYPPLGRFAVRDMRQTVAVGVIKAVDKKAAGAGKVTKSAQKAQKAK
modifications: methylated lysine
notes: as for B2
B6: MCM4: protein with methylated lysine identified in 3xMBT pull-down (protein, UniProt P33991 2-863, looked up)
DNA replication licensing …: SSPASTPSRRGSRRGRATPAQTPRSEDARSSPSQRRRGEDSTSTGELQPMPTSPGVDLQSPAAQDVLFSSPPQMHSSAIPLDFDVSSPLTYGTPSSRVEGTPRSGVRGTPVRQRPDLGSAQKGLQVDLQSDGAAAEDIVASEQSLGQKLVIWGTDVNVAACKENFQRFLQRFIDPLAKEEENVGIDITEPLYMQRLGEINVIGEPFLNVNCEHIKSFDKNLYRQLISYPQEVIPTFDMAVNEIFFDRYPDSILEHQIQVRPFNALKTKNMRNLNPEDIDQLITISGMVIRTSQLIPEMQEAFFQCQVCAHTTRVEMDRGRIAEPSVCGRCHTTHSMALIHNRSLFSDKQMIKLQESPEDMPAGQTPHTVILFAHNDLVDKVQPGDRVNVTGIYRAVPIRVNPRVSNVKSVYKTHIDVIHYRKTDAKRLHGLDEEAEQKLFSEKRVELLKELSRKPDIYERLASALAPSIYEHEDIKKGILLQLFGGTRKDFSHTGRGKFRAEINILLCGDPGTSKSQLLQYVYNLVPRGQYTSGKGSSAVGLTAYVMKDPETRQLVLQTGALVLSDNGICCIDEFDKMNESTRSVLHEVMEQQTLSIAKAGIICQLNARTSVLAAANPIESQWNPKKTTIENIQLPHTLLSRFDLIFLLLDPQDEAYDRRLAHHLVALYYQSEEQAEEELLDMAVLKDYIAYAHSTIMPRLSEEASQALIEAYVDMRKIGSSRGMVSAYPRQLESLIRLAEAHAKVRLSNKVEAIDVEEAKRLHREALKQSATDPRTGIVDISILTTGMSATSRKRKEELAEALKKLILSKGKTPALKYQQLFEDIRGQSDIAITKDMFEEALRALADDDFLTVTGKTVRLL
modifications: methylated lysine
notes: as for B2

What follows are molecules tested on 3×MBT domain of L3MBTL1 (assay: SILAC proteomic pull-down 3×MBT vs 3×MBTD355N from 293T nuclear extract, LC-MS/MS). Conditions: SILAC ratio, 293T nuclear extract pull-down; * = protein identified in only one labeling experiment.
Type: binding, human
Experimental: Protein pull-downs were performed as described above using 600 μg of nuclear extract prepared with isotopic labels as indicated. After eluting with glutathione, 3×MBT domain was removed by dialysis into high salt and rebinding to GSH-sepharose. Bound proteins were separated by SDS-PAGE and analyzed by in-gel tryptic digest followed by LC-MS/MS. Peptides were identified using MaxQuant version 1.2.2.5 (Cox and Mann (2008) Nat. Biotechnol. 26, 1367-1372) and candidate methylated peptides were verified by manual inspection.
For stable isotope labeling by amino acids in cell culture (SILAC) experiments HEK 293T cells were grown for at least six doublings in DMEM for SILAC supplemented with 10% dialyzed fetal bovine serum (FBS), 230 mg/L L-proline and either 100 mg/L each of L-lysine and L-arginine (“light” medium), D4-L-lysine and ^13C6-L-arginine (“medium” media), or ^13C6^15N2-L-lysine and ^13C6^15N4-L-arginine (Thermo Scientific). Heavy methyl labeling used DMEM without L-Methionine or L-Cysteine supplemented with D3^13C-L-Methionine (Sigma), L-Cysteine (Sigma) and 10% dialyzed FBS.
600 μg of nuclear extract was incubated overnight rotating at 4° C. with 20 μl packed 3×MBT or 3×MBTD355N beads in a total volume of 250 μL with binding buffer. Supernatant was removed and saved for use as a loading control. Beads were washed 4×5 minutes with 0.5 mL binding buffer. Protein was eluted by incubating in 20 μL elution buffer (10 mg/mL glutathione in 50 mM Tris pH 8.0) rotating at 4° C. for four hours. Elutions from 3×MBT and 3×MBTD355N were combined and dialyzed overnight at 4° C. against 10,000× volume of dissociation buffer (50 mM Tris pH 7.5, 750 mM NaCl) in a 0.1 mL Slide-A-Lyzer MINI Dialysis Device with 3.5K molecular weight cutoff (Thermo Scientific). 80 μL of GSH-Sepharose was prepared by washing briefly three times with 0.5 mL binding buffer. Dialyzed proteins were added to the GSH-Sepharose and incubated 4 hours rotating at 4° C. to deplete the GST-fusion domains. Supernatant was transferred to a fresh 1.5 mL tube. Proteins were separated by SDS-PAGE on a 10% polyacrylamide gel and stained using SilverQuest Silver Staining Kit (Life Technologies). Lanes were excised, residual 3×MBT band was removed, and gel was diced into 0.5 mm cubes. Gel pieces were destained and processed by in-gel digestion (Carlson et al. (2011) Science Signaling 4) with sequencing grade trypsin (Promega) and the peptide sample was dried completely in a vacuum centrifuge. To prepare a loading control, 2 μL each of light and heavy nuclear extract were combined, 6 μL of 8M urea was added, proteins were denatured by adding 2 μL of 100 mM dithiothreitol in digest buffer (50 mM ammonium bicarbonate) and heating to 60° C. for 1 hour, cysteine was alkylated by adding 2.2 μL 100 mg/mL iodoacetamide in digest buffer and incubating 1 hour at room temperature in darkness, and proteins were digested by adding 80 μL trypsin (Promega) at 12.5 ng/μL in digest buffer and incubating overnight at room temperature in darkness. Digestion was stopped by adding 10 μL of 10% formic acid.
Each experiment consisted of two sets of pull-downs: “forward” labeling with 3×MBT incubated with light nuclear extract and 3×MBTD355N with medium extract, and a second “reverse” labeling experiment with the label conditions swapped. Proteins were included in the results if they were quantified in both labeling directions. To determine reproducibility the entire experiment including the label swap was duplicated using independent protein preparations and a mass spectrometer at another institution.
For 3×MBT pull-down experiment #1 the gel lane was processed and peptides were loaded off-line onto a first dimension trap column (Waters Xbridge, C18, 10 μm particle size, 100 Å pore size, 5 cm packing length, 150 μm column i.d.). […]

Molecule | Protein Ratio 3xMBT/D355N
B1 | 4.2
B2 | 1.5
B3 | 11.2
B4 | 4.4*
B5 | 5.2
B6 | 6.6
